Source: article PMC8177701 (Science Advances, 2021)

Target: T1, RsmA (E. coli, UniProt P06992 1-273)
T1 sequence (looked up): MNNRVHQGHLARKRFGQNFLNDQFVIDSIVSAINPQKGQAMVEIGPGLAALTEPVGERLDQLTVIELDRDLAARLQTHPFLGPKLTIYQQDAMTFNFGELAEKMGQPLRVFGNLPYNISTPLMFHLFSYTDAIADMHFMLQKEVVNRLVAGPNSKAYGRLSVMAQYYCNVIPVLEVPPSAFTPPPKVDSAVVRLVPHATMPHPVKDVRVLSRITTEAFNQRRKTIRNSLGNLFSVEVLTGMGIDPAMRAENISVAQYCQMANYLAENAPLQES
Assay: NMR titration

Ka: < 10000 M⁻¹
B1: RimP (natural protein)
chain: not shown
